According to patent US10143747B2, “Breast cancer therapeutics” (IMBA—INSTITUT FÜR MOLEKULARE BIOTECHNOLOGIE GMBH, priority 2010, dated 2018):

B1: RANKL: recombinant RANKL protein, ligand of RANK, used as stimulus (1 μg/ml or 1 μg i.p.) (protein, UniProt O35235 139-316, looked up)
Tumor necrosis factor ligand …: FSGAPAMMEGSWLDVAQRGKPEAQPFAHLTINAASIPSGSHKVTLSSWYHDRGWAKISNMTLSNGKLRVNQDGFYYLYANICFRHHETSGSVPTDYLQLMVYVVKTSIKIPSSHNLMKGGSTKNWSGNSEFHFYSINVGGFFKLRAGEEISIQVSNPSLLDPDQDATYFGAFKVQDID

What was measured:
[1] = tested on: human breast cancer cells as well as cultured MECs; assay: RANKL mRNA expression in human breast cancer cells and cultured MECs after MPA stimulation in vitro; assay type: cell-based; conditions: MPA 0.1 μM
Experimental: a, Analysis of RANKL mRNA expression in human breast cancer cells as well as cultured MECs after MPA stimulation (0.1 μM). Expression was determined by qRT-PCR in unstimulated cells or cells stimulated with MPA for the indicated time points. […] Data were obtained by qRT-PCR and are shown as fold change compared to MCF10A (b) and purified primary MECs (c) (+/−sem) (n=3).
MPA (medroxyprogesterone acetate, a representive progestin) pellets were implanted into female mice and RANKL expression was assayed. […] Since MPA can induce transcription of prolactin and the prolactin receptor in breast cancer cells and prolactin can directly induce RANKL via Jak2/Stat5 signaling, it was tested whether MPA induces RANKL in the mammary gland of prolactin receptor knock-out mice.

[2] = tested on: SKBR3 human breast cancer cells; assay: DNA damage responses (cell cycle arrest, apoptosis) in SKBR3 cells; assay type: cell-based; conditions: RANKL 1 μg/ml
Experimental: a, Western Blot analysis for γH2AX, phosphorylated (P) Chk1, total Chk1, p53 and β-actin in isolated primary mouse mammary gland epithelial cells in response to γ-irradiation (2 Gray) in the presence (1 μg/ml) or absence of RANKL stimulation. b,c, FACS analysis of propidium iodide (PI) stained b, mammary epithelial cells and c, SKBR3 human breast cancer cells after γ-irradiation (2 Gray) in the absence or presence (1 μg/ml) of RANKL. Data are representative of at least 3 experiments. Apoptotic cells with a DNA content <2n appear in the sub-G1 region. Percent of cells in sub-G1 (M1), G1-phase (M2), S/G2/M-phase (M3) as well as polyploid cells with a DNA content >4n are given for the indicated time points.
a,b, FACS analysis of a, mammary epithelial cells and b, SKBR3 human breast cancer cells incubated with the genotoxic agent doxorubicin (Dox, 1 μM) in the presence (1 μg/ml) or absence of RANKL. Data are representative of at least 3 experiments. Percent of cells in sub-G1 (M1), G1-phase (M2), S/G2/M-phase (M3) as well as polyploid cells with a DNA content >4n are given for 24 and 36 hours after doxorubicin treatment. c, mRNA expression of pro-apoptotic genes Bim, Puma, and Noxa 6 hours after γ-irradiation (2 Gray) in the presence (1 μg/ml) or absence of RANKL stimulation. Data are shown as fold change compared to control (+/−sem). n=3). *P<0.05; **P<0.005 (Student's t-test).
For measurement of cell cycle arrest and apoptosis primary mouse mammary epithelial cells and SKBR3 human breast cancer cells were seeded at a cell-density of 100000 cells/well in a 6-well plate and allowed to grow for 24 hours. Cells where then treated with doxorubicin (1 μM) or γ-irradiation (2 Gray) in the absence or presence of recombinant RANKL (1 μg/ml). Cell cycle arrest and numbers of dead cells were determined using propidium iodine staining. To determine in vivo mammary gland epithelial cell death, control and RANK^Δmam littermate females were γ-irradiated with a total dose of 5 Gray (Gy). Six hours later, mammary glands were isolated and immunostained for active Caspase 3 (Cell Signaling) indicative of apoptosis.

Row | Molecule | RANKL mRNA induction in SKBR3 cells [1] | early cell cycle arrest after DNA damage ([2]; doxorubicin 1 μM) | protection from cell death ([2]; doxorubicin 1 μM) | early cell cycle arrest after DNA damage ([2]; γ-irradiation 2 Gray) | protection from cell death ([2]; γ-irradiation 2 Gray)
1 | CC(=O)O[C@]1(C(C)=O)CC[C@H]2[C@@H]3C[C@H](C)C4=CC(=O)CC[C@]4(C)[C@H]3CC[C@@]21C [MPA, medroxyprogesterone acetate] | only slightly increased | – | – | – | –
2 | B1 | – | did not alter the early cell cycle arrest | marked protection from cell death | did not alter the early cell cycle arrest | marked protection from cell death
